The values that follow come from patent publication US20070134660.

The data set concerns the target taxol-stabilized microtubules.

B1: KIF14 motor domain V354-K720 (SEQ ID NO:6) (protein)
chain: MVENSQVTVAVRVRPFTKREKIEKASQVVFMSGKEITVEHPDTKQVYNFIYDVSFWSFDECHPHYASQTTVYEKLAAPLLERAFEGFNTCLFAYGQTGSGKSYTMMGFSEEPGIIPRFCEDLFSQVARKQTQEVSYHIEMSFFEVYNEKIHDLLVCKDENGQRKQPLRVREHPVYGPYVEALSMNIVSSYADIQSWLELGNKQRATAATGMNDKSSRSHSVFTLVMTQTKTEFVEGEEHDHRITSRINLIDLAGSERCSTAHTNGDRLKEGVSINKSLLTLGKVISALSEQANQRSVFIPYRESVLTWLLKESLGGNSKTAMIATISPAASNIEETLSTLRYANQARLIVNIAKVNEDMNAKLIRELKLEHHHHHHHHHHHH
B1: the k(obs) (min-1) at MT 0 micromolar stood at 0 min⁻¹, the k(obs) (min-1) at MT 0.25 micromolar is 0.73 min⁻¹, the k(obs) (min-1) at MT 0.5 micromolar was determined as 1.49 min⁻¹ and the k(obs) (min-1) at MT 1 micromolar stood at 4.12 min⁻¹. Besides, the k(obs) (min-1) at MT 2.5 micromolar is 9.29 min⁻¹, the k(obs) (min-1) at MT 5 micromolar was found to be 18.3 min⁻¹ and the “microtubule-dependent ATP hydrolysis activity” value was “All of the KIF14 MD proteins showed microtubule-dependent ATP hydrolysis activity”.

B2: KIF14 motor domain V342-K720 (SEQ ID NO:4) (protein)
chain: MVQNTSAGKDPLKVENSQVTVAVRVRPFTKREKIEKASQVVFMSGKEITVEHPDTKQVYNFIYDVSFWSFDECHPHYASQTTVYEKLAAPLLERAFEGFNTCLFAYGQTGSGKSYTMMGFSEEPGIIPRFCEDLFSQVARKQTQEVSYHIEMSFFEVYNEKIHDLLVCKDENGQRKQPLRVREHPVYGPYVEALSMNIVSSYADIQSWLELGNKQRATAATGMNDKSSRSHSVFTLVMTQTKTEFVEGEEHDHRITSRINLIDLAGSERCSTAHTNGDRLKEGVSINKSLLTLGKVISALSEQANQRSVFIPYRESVLTWLLKESLGGNSKTAMIATISPAASNIEETLSTLRYANQARLIVNIAKVNEDMNAKLIRELKLEHHHHHHHHHHHH
Turning to B2, the K1/2 (MT) stood at 10.6 µM, the “Km (Michaelis-Menten fit of microtubule utilization)” value is listed as “a Km of 2.6+/-1.1 (s.d.)”, the k(obs) (min-1) at MT 0 micromolar amounted to 0 min⁻¹ and the k(obs) (min-1) at MT 0.25 micromolar was 0.36 min⁻¹. Also, the k(obs) (min-1) at MT 0.5 micromolar came to 1.57 min⁻¹, the k(obs) (min-1) at MT 1 micromolar turned out to be 2.79 min⁻¹, the k(obs) (min-1) at MT 2.5 micromolar was 9.1 min⁻¹ and the k(obs) (min-1) at MT 5 micromolar came out at 13.2 min⁻¹. The “kcat (Michaelis-Menten fit of microtubule utilization)” value is given as “a kcat of 21.3+/-3.5 (s.d.)”; the “kcat/Km under optimized conditions (MES, pH 6.0, 40 mM KCl)” value is given as “compared to 13.2 under optimized conditions (MES, pH 6.0,40 mM KCl)”; the “kcat/Km under unoptimized conditions (K-PIPES, pH 6.7, 90 mM KCl)” value is listed as “the kcat/Km for the V342-K720 motor domain (SEQ ID NO:4) under unoptimized conditions (K-PIPES, pH 6.7, 90 mM KCl) was 224”; the “microtubule-dependent ATP hydrolysis activity” value is “All of the KIF14 MD proteins showed microtubule-dependent ATP hydrolysis activity”.

B3: hu_CENP-E (1-340H) motor domain (SEQ ID NO:19) (protein)
chain: MAEEGAVAVCVRVRPLNSREESLGETAQVYWKTDNNVIYQVDGSKSFNFDRVFHGNETTKNVYEEIAAPIIDSAIQGYNGTIFAYGQTASGKTYTMMGSEDHLGVIPRAIHDIFQKIKKFPDREFLLRVSYMEIYNETITDLLCGTQKMKPLIIREDVNRNVYVADLTEEVVYTSEMALKWITKGEKSRHYGETKMNQRSSRSHTIFRMILESREKGEPSNCEGSVKVSHLNLVDLAGSERAAQTGAAGVRLKEGCNINRSLFILGQVIKKLSDGQVGGFINYRDSKLTRILQNSLGGNAKTRIICTITPVSFDETLTALQFASTAKYMKNTPYVNEVSTVDKLAAALEHHHHHH
The protein B3 came in with a K1/2 (MT) of 1.6 µM.

B4: KIF14 motor domain V342-D710 (SEQ ID NO:5) (protein)
chain: MVQNTSAGKDPLKVENSQVTVAVRVRPFTKREKIEKASQVVFMSGKEITVEHPDTKQVYNFIYDVSFWSFDECHPHYASQTTVYEKLAAPLLERAFEGFNTCLFAYGQTGSGKSYTMMGFSEEPGIIPRFCEDLFSQVARKQTQEVSYHIEMSFFEVYNEKIHDLLVCKDENGQRKQPLRVREHPVYGPYVEALSMNIVSSYADIQSWLELGNKQRATAATGMNDKSSRSHSVFTLVMTQTKTEFVEGEEHDHRITSRINLIDLAGSERCSTAHTNGDRLKEGVSINKSLLTLGKVISALSEQANQRSVFIPYRESVLTWLLKESLGGNSKTAMIATISPAASNIEETLSTLRYANQARLIVNIAKVNEDLEHHHHHHHHHHHH
Turning to B4, the k(obs) (min-1) at MT 0 micromolar worked out at 0 min⁻¹, the k(obs) (min-1) at MT 0.25 micromolar was found to be 0.03 min⁻¹, the k(obs) (min-1) at MT 0.5 micromolar was found to be 0.73 min⁻¹ and the k(obs) (min-1) at MT 1 micromolar was 0.79 min⁻¹. Besides, the k(obs) (min-1) at MT 2.5 micromolar turned out to be 3.02 min⁻¹, the k(obs) (min-1) at MT 5 micromolar came out at 5.91 min⁻¹ and the “microtubule-dependent ATP hydrolysis activity” value was “All of the KIF14 MD proteins showed microtubule-dependent ATP hydrolysis activity”.

B5: hu_MKLP-1 (1-433H) motor domain (SEQ ID NO:20) (protein)
chain: MARAKTPRKPTVKKGSQTNLKDPVGVYCRVRPLGFPDQECCIEVINNTTVQLHTPEGYRLNRNGDYKETQYSFKQVFGTHTTQKELFDVVANPLVNDLIHGKNGLLFTYGVTGSGKTHTMTGSPGEGGLLPRCLDMIFNSIGSFQAKRYVFKSNDRNSMDIQCEVDALLERQKREAMPNPKTSSSKRQVDPEFADMITVQEFCKAEEVDEDSVYGVFVSYIEIYNNYIYDLLEEVPFDPIKPKPPQSKLLREDKNHNMYVAGCTEVEVKSTEEAFEVFWRGQKKRRIANTHLNRESSRSHSVFNIKLVQAPLDADGDNVLQEKEQITISQLSLVDLAGSERTNRTRAEGNRLREAGNINQSLMTLRTCMDVLRENQMYGTNKMVPYRDSKLTHLFKNYFDGEGKVRMIVCVNPKAEDYEENLQVMRFAEVTQEVDKLAAALEHHHHHH
B5 gave a K1/2 (MT) of 0.24 µM.

B6: hu_KIF3A (1-350H) motor domain (SEQ ID NO:16) (protein)
chain: MPINKSEKPESCDNVKVVVRCRPLNEREKSMCYKQAVSVDEMRGTITVHKTDSSNEPPKTFTFDTVFGPESKQLDVYNLTARPIIDSVLEGYNGTIFAYGQTGTGKTFTMEGVRAIPELRGIIPNSFAHIFGHIAKAEGDTRFLVRVSYLEIYNEEVRDLLGKDQTQRLEVKERPDVGVYIKDLSAYVVNNADDMDRIMTLGHKNRSVGATNMNEHSSRSHAIFTITIECSEKGIDGNMHVRMGKLHLVDLAGSERQAKTGATGQRLKEATKINLSLSTLGNVISALVDGKSTHVPYRNSKLTRLLQDSLGGNSKTMMCANIGPADYNYDETISTLRYANRAKNIKNKARVDKLAAALEHHHHHH
B6 registered a K1/2 (MT) of 0.17 µM.

B7: hu_nKHC (1-340H) motor domain (SEQ ID NO:18) (protein)
chain: MAETNNECSIKVLCRFRPLNQAEILRGDKFIPIFQGDDSVVIGGKPYVFDRVFPPNTTQEQVYHACAMQIVKDVLAGYNGTIFAYGQTSSGKTHTMEGKLHDPQLMGIIPRIARDIFNHIYSMDENLEFHIKVSYFEIYLDKIRDLLDVTKTNLSVHEDKNRVPFVKGCTERFVSSPEEILDVIDEGKSNRHVAVTNMNEHSSRSHSIFLINIKQENMETEQKLSGKLYLVDLAGSEKVSKTGAEGAVLDEAKNINKSLSALGNVISALAEGTKSYVPYRDSKMTRILQDSLGGNCRTTMFICCSPSSYNDAETKSTLMFGQRAKTIKNTASVNLELTAEVDKLAAALEHHHHHH
As for B7, the K1/2 (MT) was 1.1 µM.

B8: hu_KIF1B (1-350H) motor domain (SEQ ID NO:21) (protein)
chain: MSGASVKVAVRVRPFNSRETSKESKCIIQMQGNSTSIINPKNPKEAPKSFSFDYSYWSHTSPEDPCFASQNRVYNDIGKEMLLHAFEGYNVCIFAYGQTGAGKSYTMMGKQEESQAGIIPQLCEELFEKINDNCNEEMSYSVEVSYMEIYCERVRDLLNPKNKGNLRVREHPLLGPYVEDLSKLAVTSYTDIADLMDAGNKARTVAATNMNETSSRSHAVFTIVFTQKKHDNETNLSTEKVSKISLVDLAGSERADSTGAKGTRLKEGANINKSLTTLGKVISALAEVDNCTSKSKKKKKTDFIPYRDSVLTWLLRENLGGNSRTAMVAALSPADINYDETLSTLRYADRVDKLAAALEHHHHHH
Take B8: the K1/2 (MT) amounted to 0.035 µM.

B9: hu_uKHC (1-337H) motor domain (SEQ ID NO:17) (protein)
chain: MADLAECNIKVMCRFRPLNESEVNRGDKYIAKFQGEDTVVIASKPYAFDRVFQSSTSQEQVYNDCAKKIVKDVLEGYNGTIFAYGQTSSGKTHTMEGKLHDPEGMGIIPRIVQDIFNYIYSMDENLEFHIKVSYFEIYLDKIRDLLDVSKTNLSVHEDKNRVPYVKGCTERFVCSPDEVMDTIDEGKSNRHVAVTNMNEHSSRSHSIFLINVKQENTQTEQKLSGKLYLVDLAGSEKVSKTGAEGAVLDEAKNINKSLSALGNVISALAEGSTYVPYRDSKMTRILQDSLGGNCRTTIVICCSPSSYNESETKSTLLFGQRAKTIKNTVCVNVELTAVDKLAAALEHHHHHH
The protein B9 displayed a K1/2 (MT) of 0.34 µM.

B10: hu-KSP (1-367H) motor domain (SEQ ID NO:15) (protein)
chain: MASQPNSSAKKKEEKGKNIQVVVRCRPFNLAERKASAHSIVECDPVRKEVSVRTGGLADKSSRKTYTFDMVFGASTKQIDVYRSVVCPILDEVIMGYNCTIFAYGQTGTGKTFTMEGERSPNEEYTWEEDPLAGIIPRTLHQIFEKLTDNGTEFSVKVSLLEIYNEELFDLLNPSSDVSERLQMFDDPRNKRGVIIKGLEEITVHNKDEVYQILEKGAAKRTTAATLMNAYSSRSHSVFSVTIHMKETTIDGEELVKIGKLNLVDLAGSENIGRSGAVDKRAREAGNINQSLLTLGRVITALVERTPHVPYRESKLTRILQDSLGGRTRTSIIATISPASLNLEETLSTLEYAHRAKNILNKPEVNQHHHHHH
As to B10, the K1/2 (MT) was 0.3 µM.

B11: KIF14 motor domain V354-D710 (SEQ ID NO:7) (protein)
chain: MVENSQVTVAVRVRPFTKREKIEKASQVVFMSGKEITVEHPDTKQVYNFIYDVSFWSFDECHPHYASQTTVYEKLAAPLLERAFEGFNTCLFAYGQTGSGKSYTMMGFSEEPGIIPRFCEDLFSQVARKQTQEVSYHIEMSFFEVYNEKIHDLLVCKDENGQRKQPLRVREHPVYGPYVEALSMNIVSSYADIQSWLELGNKQRATAATGMNDKSSRSHSVFTLVMTQTKTEFVEGEEHDHRITSRINLIDLAGSERCSTAHTNGDRLKEGVSINKSLLTLGKVISALSEQANQRSVFIPYRESVLTWLLKESLGGNSKTAMIATISPAASNIEETLSTLRYANQARLIVNIAKVNEDLEHHHHHHHHHHHH
Protein B11 yielded a k(obs) (min-1) at MT 0 micromolar of 0 min⁻¹, a k(obs) (min-1) at MT 0.25 micromolar of 0.39 min⁻¹, a k(obs) (min-1) at MT 0.5 micromolar of 1.07 min⁻¹ and a k(obs) (min-1) at MT 1 micromolar of 1.87 min⁻¹. Moreover, the k(obs) (min-1) at MT 2.5 micromolar was 5.79 min⁻¹, the k(obs) (min-1) at MT 5 micromolar stood at 10.2 min⁻¹ and the “microtubule-dependent ATP hydrolysis activity” value is “All of the KIF14 MD proteins showed microtubule-dependent ATP hydrolysis activity”.
